From patent publication US8623997B2, “Variant Hhip1 protein and methods and uses thereof” (Curis, Inc., priority 2008, dated 2014)

Target: T1, biotinylated-ShhN-Cys (Homo sapiens, UniProt Q15465)
T1 construct: ShhN-Cys (residues 24-197); His6 (N); made in house; host or cells: E. coli Rosetta 2
Assay: Bio-layer interferometry (Octet) binding kinetics of Hhip1β12 variants to Shh
Details: for Kd / koff × 10^−4 / kon × 10^3: 1:1 binding model, n.d stands for no binding detected; for Shh binding of Hhip1β12 mutants (in words): bio-layer interferometry, compared with WT Hhip1β12
Method: The binding kinetics of the Hhip1β12 fragments as well as Hhip1β12 mutants were measured by bio-layer interferometry in the presence or absence of 10 mM EDTA on an Octet (Fortébio). Streptavidin high binding FA biosensors were loaded with biotinylated-ShhN-Cys in kinetic buffer (Fortébio). The loaded biosensors were washed and transferred to wells containing Hhip1β12 protein at concentrations of 1.2, 1.0, 0.8 and 0.6 μM in kinetic buffer. Hhip1β12 association and dissociation was measured for 30 and 20 min, respectively. Kinetic parameters (kon and koff) and affinities (KD) were calculated from a non-linear fit of the data based on a 1:1 binding model between Hhip1β12 and Shh using the Octet software. Multiple independent measurements were performed.
In order to assess the contribution of residues in the Hhip1 L1, L2 and L3 loops for binding to Shh, a series of single alanine Hipβ12 mutants were made using the QuickChange DNA mutagenesis kit (Stratagene) using the manufacturer's protocol, and their affinity for Shh was measured by bio-layer interferometry (as described in Example 2B). These mutations included Hhip1β12 mutants 1312A, E381A, M382A, D383A, D378A, T418A, Q420A, E380A, D387A and ΔL2.

Row | Kd [nM] | koff × 10^−4 | kon × 10^3 | Shh binding of Hhip1β12 mutants (in words) | Shh binding of Hhip1β12 mutants (in words) (listed as E380) | Molecule
1 | 270 | 9.0 × 10^−4 [s^−1] | 3.4 × 10^3 [M^−1 × s^−1] | little effect on Shh |  | T418A: L3 loop single alanine variant made in the Hhip1β12 construct (protein) SNYLDQMEEYDKVEEISRKHKHNCFCIQEVVSGLRQPVGALHSGDGSQRLFILEKEGYVKILTPEGEIFKEPYLDIHKLVQSGIKGGDERGLLSLAFHPNYKKNGKLYVSYTTNQERWAIGPHDHILRVVEYTVSRKNPHQVDLRTARVFLEVAELHRKHLGGQLLFGPDGFLYIILGDGMITLDDMEEMDGLSDFTGSVLRLDVDTDMCNVPYSIPRSNPHFNSANQPPEVFAHGLHDPGRCAVDRHPTDININLTILCSDSNGKNRSSARILQIIKGKDYESEPSLLEFKPFSNGPLVGGFVYRGCQSERLYGSYVFGDRNGNFLTLQQSPVTKQWQEKPLCLGTSGSCRGYFSGHILGFGEDELGEVYILSSSKSMTQTHNGKLYKIVDPKRPLMPEECRATVQPAQTLTSECSRLCRNGYCTPTGKCCCSPGWEGDFCRTAKCEPACRHGGVCVRPNKCLCKKGYLGPQCEHHHHHH
2 |  |  |  | abolished binding to Shh |  | D387A: L2 loop single alanine variant made in the Hhip1β12 construct (protein) SNYLDQMEEYDKVEEISRKHKHNCFCIQEVVSGLRQPVGALHSGDGSQRLFILEKEGYVKILTPEGEIFKEPYLDIHKLVQSGIKGGDERGLLSLAFHPNYKKNGKLYVSYTTNQERWAIGPHDHILRVVEYTVSRKNPHQVDLRTARVFLEVAELHRKHLGGQLLFGPDGFLYIILGDGMITLDDMEEMDGLSAFTGSVLRLDVDTDMCNVPYSIPRSNPHFNSTNQPPEVFAHGLHDPGRCAVDRHPTDININLTILCSDSNGKNRSSARILQIIKGKDYESEPSLLEFKPFSNGPLVGGFVYRGCQSERLYGSYVFGDRNGNFLTLQQSPVTKQWQEKPLCLGTSGSCRGYFSGHILGFGEDELGEVYILSSSKSMTQTHNGKLYKIVDPKRPLMPEECRATVQPAQTLTSECSRLCRNGYCTPTGKCCCSPGWEGDFCRTAKCEPACRHGGVCVRPNKCLCKKGYLGPQCEHHHHHH
3 | 500 | 11.0 × 10^−4 [s^−1] | 2.1 × 10^3 [M^−1 × s^−1] | little effect on Shh |  | Q420A: L3 loop single alanine variant made in the Hhip1β12 construct (protein) SNYLDQMEEYDKVEEISRKHKHNCFCIQEVVSGLRQPVGALHSGDGSQRLFILEKEGYVKILTPEGEIFKEPYLDIHKLVQSGIKGGDERGLLSLAFHPNYKKNGKLYVSYTTNQERWAIGPHDHILRVVEYTVSRKNPHQVDLRTARVFLEVAELHRKHLGGQLLFGPDGFLYIILGDGMITLDDMEEMDGLSDFTGSVLRLDVDTDMCNVPYSIPRSNPHFNSTNAPPEVFAHGLHDPGRCAVDRHPTDININLTILCSDSNGKNRSSARILQIIKGKDYESEPSLLEFKPFSNGPLVGGFVYRGCQSERLYGSYVFGDRNGNFLTLQQSPVTKQWQEKPLCLGTSGSCRGYFSGHILGFGEDELGEVYILSSSKSMTQTHNGKLYKIVDPKRPLMPEECRATVQPAQTLTSECSRLCRNGYCTPTGKCCCSPGWEGDFCRTAKCEPACRHGGVCVRPNKCLCKKGYLGPQCEHHHHHH

Continued, molecule first:

Row | Molecule | Kd [nM] | koff × 10^−4 | kon × 10^3 | Shh binding of Hhip1β12 mutants (in words) | Shh binding of Hhip1β12 mutants (in words) (listed as E380)
4 | E381A: L2 loop single alanine variant made in the Hhip1β12 construct (protein) SNYLDQMEEYDKVEEISRKHKHNCFCIQEVVSGLRQPVGALHSGDGSQRLFILEKEGYVKILTPEGEIFKEPYLDIHKLVQSGIKGGDERGLLSLAFHPNYKKNGKLYVSYTTNQERWAIGPHDHILRVVEYTVSRKNPHQVDLRTARVFLEVAELHRKHLGGQLLFGPDGFLYIILGDGMITLDDMEAMDGLSDFTGSVLRLDVDTDMCNVPYSIPRSNPHFNSTNQPPEVFAHGLHDPGRCAVDRHPTDININLTILCSDSNGKNRSSARILQIIKGKDYESEPSLLEFKPFSNGPLVGGFVYRGCQSERLYGSYVFGDRNGNFLTLQQSPVTKQWQEKPLCLGTSGSCRGYFSGHILGFGEDELGEVYILSSSKSMTQTHNGKLYKIVDPKRPLMPEECRATVQPAQTLTSECSRLCRNGYCTPTGKCCCSPGWEGDFCRTAKCEPACRHGGVCVRPNKCLCKKGYLGPQCEHHHHHH | 300 | 3.3 × 10^−4 [s^−1] | 1.1 × 10^3 [M^−1 × s^−1] |  | 
5 | E380A: L2 loop single alanine variant made in the Hhip1β12 construct (protein) SNYLDQMEEYDKVEEISRKHKHNCFCIQEVVSGLRQPVGALHSGDGSQRLFILEKEGYVKILTPEGEIFKEPYLDIHKLVQSGIKGGDERGLLSLAFHPNYKKNGKLYVSYTTNQERWAIGPHDHILRVVEYTVSRKNPHQVDLRTARVFLEVAELHRKHLGGQLLFGPDGFLYIILGDGMITLDDMAEMDGLSDFTGSVLRLDVDTDMCNVPYSIPRSNPHFNSTNQPPEVFAHGLHDPGRCAVDRHPTDININLTILCSDSNGKNRSSARILQIIKGKDYESEPSLLEFKPFSNGPLVGGFVYRGCQSERLYGSYVFGDRNGNFLTLQQSPVTKQWQEKPLCLGTSGSCRGYFSGHILGFGEDELGEVYILSSSKSMTQTHNGKLYKIVDPKRPLMPEECRATVQPAQTLTSECSRLCRNGYCTPTGKCCCSPGWEGDFCRTAKCEPACRHGGVCVRPNKCLCKKGYLGPQCEHHHHHH |  |  |  | minor to moderate effects on Shh binding | abolished binding to Shh
6 | M382A: L2 loop single alanine variant made in the Hhip1β12 construct (protein) SNYLDQMEEYDKVEEISRKHKHNCFCIQEVVSGLRQPVGALHSGDGSQRLFILEKEGYVKILTPEGEIFKEPYLDIHKLVQSGIKGGDERGLLSLAFHPNYKKNGKLYVSYTTNQERWAIGPHDHILRVVEYTVSRKNPHQVDLRTARVFLEVAELHRKHLGGQLLFGPDGFLYIILGDGMITLDDMEEADGLSDFTGSVLRLDVDTDMCNVPYSIPRSNPHFNSTNQPPEVFAHGLHDPGRCAVDRHPTDININLTILCSDSNGKNRSSARILQIIKGKDYESEPSLLEFKPFSNGPLVGGFVYRGCQSERLYGSYVFGDRNGNFLTLQQSPVTKQWQEKPLCLGTSGSCRGYFSGHILGFGEDELGEVYILSSSKSMTQTHNGKLYKIVDPKRPLMPEECRATVQPAQTLTSECSRLCRNGYCTPTGKCCCSPGWEGDFCRTAKCEPACRHGGVCVRPNKCLCKKGYLGPQCEHHHHHH |  |  |  | abolished binding to Shh | 
7 | D378A: L2 loop single alanine variant made in the Hhip1β12 construct (protein) SNYLDQMEEYDKVEEISRKHKHNCFCIQEVVSGLRQPVGALHSGDGSQRLFILEKEGYVKILTPEGEIFKEPYLDIHKLVQSGIKGGDERGLLSLAFHPNYKKNGKLYVSYTTNQERWAIGPHDHILRVVEYTVSRKNPHQVDLRTARVFLEVAELHRKHLGGQLLFGPDGFLYIILGDGMITLDAMEEMDGLSDFTGSVLRLDVDTDMCNVPYSIPRSNPHFNSTNQPPEVFAHGLHDPGRCAVDRHPTDININLTILCSDSNGKNRSSARILQIIKGKDYESEPSLLEFKPFSNGPLVGGFVYRGCQSERLYGSYVFGDRNGNFLTLQQSPVTKQWQEKPLCLGTSGSCRGYFSGHILGFGEDELGEVYILSSSKSMTQTHNGKLYKIVDPKRPLMPEECRATVQPAQTLTSECSRLCRNGYCTPTGKCCCSPGWEGDFCRTAKCEPACRHGGVCVRPNKCLCKKGYLGPQCEHHHHHH | 2400 | 3.6 × 10^−4 [s^−1] | 0.15 × 10^3 [M^−1 × s^−1] | minor to moderate effects on Shh binding | 
